Reference: article PMC11922769

Molecular target: T1, His-MBP-SPO11;TOP6BL-Flag (Mus musculus;Mus musculus, UniProt Q9WTK8;J3QMY9 1-396;1-579, |)
T1 sequence 1: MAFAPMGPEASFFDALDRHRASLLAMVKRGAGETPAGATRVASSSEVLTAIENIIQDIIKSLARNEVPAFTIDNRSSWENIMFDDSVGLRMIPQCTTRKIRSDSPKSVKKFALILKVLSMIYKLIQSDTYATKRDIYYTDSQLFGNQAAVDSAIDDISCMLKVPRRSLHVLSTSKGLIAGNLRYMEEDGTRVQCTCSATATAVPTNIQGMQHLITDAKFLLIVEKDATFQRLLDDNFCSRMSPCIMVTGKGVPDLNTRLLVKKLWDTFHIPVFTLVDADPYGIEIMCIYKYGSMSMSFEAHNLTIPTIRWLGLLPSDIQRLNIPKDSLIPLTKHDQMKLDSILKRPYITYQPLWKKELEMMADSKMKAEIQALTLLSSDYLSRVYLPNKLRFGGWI
T1 sequence 2: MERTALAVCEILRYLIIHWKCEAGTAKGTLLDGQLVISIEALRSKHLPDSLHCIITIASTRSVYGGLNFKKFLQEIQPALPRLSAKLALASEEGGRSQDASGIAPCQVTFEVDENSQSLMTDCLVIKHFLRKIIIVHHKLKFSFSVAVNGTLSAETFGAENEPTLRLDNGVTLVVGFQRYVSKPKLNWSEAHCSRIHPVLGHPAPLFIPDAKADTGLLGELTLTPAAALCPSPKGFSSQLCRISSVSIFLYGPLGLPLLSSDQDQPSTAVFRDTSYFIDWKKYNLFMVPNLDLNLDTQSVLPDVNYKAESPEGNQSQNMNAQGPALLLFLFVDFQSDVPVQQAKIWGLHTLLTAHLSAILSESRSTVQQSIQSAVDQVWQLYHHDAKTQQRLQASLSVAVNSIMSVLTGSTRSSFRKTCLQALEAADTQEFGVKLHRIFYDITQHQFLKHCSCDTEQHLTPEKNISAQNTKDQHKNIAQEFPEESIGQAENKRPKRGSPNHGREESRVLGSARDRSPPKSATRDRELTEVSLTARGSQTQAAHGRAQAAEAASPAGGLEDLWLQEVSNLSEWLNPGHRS
Test: EMSA

B1: 46bp dsDNA, double 5' overhang (dsDNA)
DNA 1: TAGACGTCCTCGCATCAAGATGCTGCTGCCATCTTATATTTTCTATAC
DNA 2: TAGTATAGAAAATATAAGATGGCAGCAGCATCTTGATGCGAGGACGTC
B1 showed a Kd of 20.8 ± 0.39 nM.
